Our source for the Kd values is PMC9468479.

Assay [1] has as its target Wuhan-Hu-1 SARS-CoV-2 receptor binding domain (2019-nCoV spike RBD) (SARS-CoV-2 (Wuhan-Hu-1)) (UniProt P0DTC2). Kind of assay: SPR.
The target of assay [2] is SARS-CoV-2 wild-type Wuhan-Hu-1 spike protein (2019-nCoV spike protein) (SARS-CoV-2 (Wuhan-Hu-1)) (UniProt P0DTC2). Kind of assay: SPR.

On to “Urtica dioica agglutinin (UDA) (natural protein)”, for which the results for the Kd in assay [1] and in assay [2] were 22 nM and 7 nM, respectively.
